Laboratory results published in patent US20250215091A1, “Anti-GAL3 Antibodies and Compositions” (Les Laboratoires Servier, priority 2022, published 2025).
Positions count from the first letter of the chain named.

B1: B12: anti-Gal3 monoclonal antibody, IgG1 format; VH SEQ ID NO 54, VL SEQ ID NO 55 (antibody, V domains shown)
VH: EVQLVESGGSLVKPGGSLRLSCAASGFTFSNDDMNWVRQAPGKGLEWISSIDGSSRSIYYADFVKGRFTISRDNAKNSLYLQMNSLRAEDTAVYYCVRSSGYSGGGMDVWGRGTLVTVSS
VL: QSVLTQPASVSGSPGQSITISCAGTSSDVGGSYNVAWYQQHPGKAPKLMIYSDSYRPSGVSNRFSGSKSGNTASLTISGLQAEDEADYYCSSYTSNSARVFGGGTKLEIK
modifications: IgG1 constant region
B2: D11: anti-Gal3 monoclonal antibody, IgG1 format; VH SEQ ID NO 40, VL SEQ ID NO 41 (antibody, V domains shown)
VH: EVQLVESGGSLVKPGGSLRLSCAASGFTFSNYNMNWVRQAPGKGLEWISSIYGSSRYIYYADFVKGRFTISRDNAKNSLYLQMNSLRAEDTAVYYCVRSSYGGMDVWGRGTLVTVSS
VL: B1 VL with S52Y, S95G, N96Y, A98T
modifications: IgG1 constant region
B3: E12: anti-Gal3 monoclonal antibody, IgG1 format; VH SEQ ID NO 56, VL SEQ ID NO 57 (antibody, V domains shown)
VH: B2 VH with N33A, Y57S, S100N, Y101N, G102A
VL: B1 VL with S32Y, N34D, A36S, S52Y, N96Y, A98T

Tests used:
murine Gal3 (m-Gal3-FL) = molecular target: T1, murine Gal3 (m-Gal3-FL) (Mus musculus, UniProt P16110); assay: IgG cross-reactivity ELISA on murine Gal3; assay type: binding; settings: purified IgGs 15-20 μg/mL; FIG. 3
T1 construct: Determination of Kd values on human and mouse full-length Gal3; purchased Novalix
T1 sequence (P16110 whole entry): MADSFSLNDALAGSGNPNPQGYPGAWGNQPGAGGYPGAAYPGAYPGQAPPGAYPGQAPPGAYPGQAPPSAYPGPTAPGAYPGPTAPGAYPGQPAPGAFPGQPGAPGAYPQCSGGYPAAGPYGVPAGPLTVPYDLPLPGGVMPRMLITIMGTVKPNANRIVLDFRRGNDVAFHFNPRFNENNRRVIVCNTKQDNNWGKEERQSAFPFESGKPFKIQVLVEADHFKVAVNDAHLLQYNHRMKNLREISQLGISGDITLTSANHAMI
Experimental: (§1) Anti-Gal3 antibodies human/mouse cross-reactivity was tested by ELISA on human Gal3 full-length (Hu-Gal3-FL) and CRD domain (Hu-Gal3-CRD), and on murine Gal3 (m-Gal3-FL).
(§2) Hu-Gal3-FL, Hu-Gal3-CRD and m-Gal3-FL were immobilized at 3 μg/mL via their histidine tag on functionalized microplates. Purified IgGs were added into the wells (15-20 μg/mL final concentration) and detected with an anti-Fab.HRP antibody. A control rabbit antibody directed against Hu-Gal3 (Abcam ab53082 reference) was used at 5 μg/mL as antigen-coating positive control and detected with an anti-rabbit.HRP secondary antibody (7074S-Cell Signaling reference).

Hu-Gal3-FL = molecular target: T2, Hu-Gal3-FL (Homo sapiens, UniProt P17931); assay: ELISA dose-response EC50 on human Gal3; settings: ELISA binding on Hu-Gal3-FL
T2 construct: made in house
T2 sequence (P17931 whole entry): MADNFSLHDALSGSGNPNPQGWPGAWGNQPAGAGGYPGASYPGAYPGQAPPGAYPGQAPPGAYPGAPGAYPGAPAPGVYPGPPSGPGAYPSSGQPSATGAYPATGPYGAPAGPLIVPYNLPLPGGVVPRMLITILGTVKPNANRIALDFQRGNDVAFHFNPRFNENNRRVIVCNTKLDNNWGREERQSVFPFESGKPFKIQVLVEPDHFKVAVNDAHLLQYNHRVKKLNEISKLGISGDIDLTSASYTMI
Experimental: (§3) To determine the half maximal effective concentration (EC50) of the antibodies, ELISA dose-response experiments were performed on Hu-Gal3-FL and on m-Gal3-FL.
(§4) Hu-Gal3-FL and m-Gal3-FL were immobilized at 3 μg/mL through their His-tag on functionalized microplates as before. A 3.3-fold serial dilution was carried-out with the purified IgGs, added to the wells containing immobilized Hu-Gal3-FL or m-Gal3-FL and detected with an anti-Fab.HRP antibody.
(§5) Human/mouse Gal3 EC50 ratio were estimated according to EC50 values (sigmoidal dose-response equation: Y=Bottom+X*(Top−Bottom)/(EC50+X)), a low ratio indicating a high cross-reactivity.

[1] = tested on: human Gal3 full-length (Hu-Gal3-FL) and CRD domain (Hu-Gal3-CRD); assay: IgG cross-reactivity ELISA on human Gal3; assay type: binding; settings: purified IgGs 15-20 μg/mL; FIG. 3
human Gal3 full-length (Hu-Gal3-FL) and CRD domain (Hu-Gal3-CRD), sequence (P17931 118-250 limits assumed): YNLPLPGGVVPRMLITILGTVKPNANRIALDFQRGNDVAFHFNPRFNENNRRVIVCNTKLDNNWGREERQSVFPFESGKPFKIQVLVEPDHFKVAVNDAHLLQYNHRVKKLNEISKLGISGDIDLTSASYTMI
Experimental: as §1, §2

m-Gal3-FL = molecular target: T3, m-Gal3-FL (Mus musculus, UniProt P16110); assay: ELISA dose-response EC50 on mouse Gal3; settings: ELISA binding on m-Gal3-FL
T3 construct: made in house
T3 sequence (P16110 whole entry): as the sequence (P16110 whole entry) above
Experimental: as §3, §4, §5

[2] = tested on: murine model of bleomycin-induced fibrosis; assay: Bleomycin-induced murine lung fibrosis model: body weight and body weight metrics; assay type: in vivo, mice
Experimental: (§6) Control bleomycin mice named ‘Bleo’ received an administration of 1.65 mg/kg bleomycin by the oropharyngeal route on Day 1. […] Antibody-treated mice also received an administration of 1.65 mg/kg bleomycin by the oropharyngeal route on Day 1 and a subcutaneous injection of 20 mg/kg antibody, starting on day minus one and on days 4, 8, 12, 16 and 20. Each antibody was solubilized in sterile, endotoxin-free PBS before injection. Mice that received bleomycin were also treated by oropharyngeal administration of 0.5 mg/kg of TD139 compound (Bleo-TD139), a small molecule Gal3 inhibitor, starting on day 12 and every 2 days until day 20. TD139 was initially dissolved in 100% DMSO.
Mice were weighed daily. Their growth curves are represented on FIG. 12. Control mice had normal growth with a mean percent increase of 6.4% of their initial body weight measured on day minus 1.
Body weight metrics were assessed by using two parameters called Time to weight growth (TWG) and Time to baseline (TTB), shown on FIG. 13. Time to weight growth corresponds to the point of inflection when mice show an ascending growth curve and start to regain weight within the course of the experiment. Time to baseline corresponds to the number of days required for mice to recover their initial body weight (day minus 1). The median TWG was 10 days for the untreated bleomycin group. […] TD139 compound had no efficacy on this parameter (p-value 0.53).

[3] = tested on: murine model of HOCI-induced fibrosis; assay: HOCI-induced murine fibrosis model: skin and lung collagen (Picrosirius red); assay type: in vivo, mice; settings: first experiment
Experimental: (§7) In a first experiment, control mice (n=12) received a daily intradermal injection of 300 μL of sterile phosphate buffer saline (PBS) for 5 consecutive days per week, for a duration of 42 days. HOCI alone and HOCI with antibody (HOCI-antibody) treated mice (n=12 per group) received a daily intradermal injection of 300 μL of HOCI for 5 consecutive days per week, for a duration of 42 days. Antibody-treated mice also received a subcutaneous injection of 20 mg/kg antibody, starting at day minus one and every 5 days between day 5 and day 40. Each antibody was solubilized in sterile, endotoxin-free PBS before injection. In a second experiment, the same protocol was applied, except that duration of the study was 63 days and antibodies were given every 7 days starting at day minus 1 until day 62.
(§8) Mice that received daily injection of HOCI were also treated by intratracheal instillation of 0.5 mg/kg of TD139 compound (HOCI-TD139), a small molecule Gal3 inhibitor. In a first experiment, the administrations started from day 21 and the compound was given every 3 days until day 39. In a second experiment, the administrations started from day 20 and the compound was given every 3 days until day 62. TD139 was initially dissolved in 100% DMSO then diluted 50-fold in endotoxin-free PBS before administration.
At the day of study termination of the first experiment (day 42), skin and lung samples were taken, formalin-fixed and processed to individual paraffin wax blocks. Sections of skin and lung were cut from the blocks and, after rehydration, stained with Picrosirius Red coloration according to the manufacturer's protocol. Subsequently, each slide was examined and remotely analyzed employing the web-based Image J software

rat model of ARDS [4] = assay: Rat ARDS model (LPS challenge): neutrophils counts in BALF; assay type: in vivo; settings: antibodies 14 mg/kg x3 prior to LPS; dexamethasone 10 mg/kg oral; vs LPS group; FIG. 16
Experimental: (§9) Positive control rats received 3 doses of sterile phosphate buffer at day minus 11, minus 6 and minus 1 prior LPS challenge (0.25 mg/kg by subcutaneous route at day 1). Negative control rats received one oral dose of Dexamethasone at 10 mg/kg (dissolved in 0.5% carboxymethyl cellulose in deionized water) 2 hours prior LPS challenge (0.25 mg/kg by subcutaneous route at day 1). LPS (lipopolysaccharide) causes an acute inflammatory response, whereas dexamethasone has anti-inflammatory effects thus being the reference treatment in this model.
(§10) Antibody-treated rats received 3 doses of antibodies (14 mg/kg) at day minus 11, minus 6 and minus 1 prior to LPS challenge (0.25 mg/kg by subcutaneous route at day 1). Each antibody was solubilized in sterile PBS before injection.
(§11) Control rats of the experiment received 3 doses of sterile phosphate buffer at day minus 11, minus 6 and minus 1 without LPS challenge at day 1.
The impact of anti-Gal3 antibody treatment in LPS challenged rats were evaluated by quantification of neutrophils in Bronchoalveolar Lavage Fluid and compared to the positive control group (LPS challenge with PBS treatment) (FIG. 16). […] Neutrophils numeration levels were decreased after treatment with anti-inflammatory dexamethasone.

plasma TNF alpha = assay: Rat ARDS model (LPS challenge): plasma TNF alpha (MSD); assay type: in vivo; settings: 4 h following LPS challenge; vs LPS group; FIG. 18
Experimental: as §9, §10, §11
For all rats, plasma sampling was performed 4 h following LPS challenge.
The impact of anti-Gal3 antibody treatment in LPS challenged rats were evaluated on plasma cytokine levels, namely TNF alpha and KC-GRO cytokines, and compared to the positive control group (LPS challenge with PBS treatment) (respectively FIG. 18A and FIG. 18B). TNF alpha and KC-GRO were quantified by using the MSD technology from Mesoscale.

plasma Gal3 = assay: HOCI-induced murine fibrosis model: plasma Gal3 (ELISA); assay type: in vivo, mice; settings: first experiment, day 42; FIG. 10
Experimental: as §7, §8
In the first experiment, the plasma levels of Gal3 were measured at day minus 1 (before antibody administration) and at termination day (day 42) using a mouse Galectin-3 DuoSet ELISA kit (R&D Systems, DY1197) according to the manufacturer's instructions. Plasma samples were diluted 1:200 in order to fit with the dynamic range of the assay.

[5] = tested on: murine model of HOCI-induced fibrosis; assay: HOCI-induced murine fibrosis model: skin thickness; assay type: in vivo, mice; settings: first experiment
Experimental: as §7, §8
The evolution of skin thickness was monitored by using an external caliper, every seven days until sacrifice.

plasma IL-5 = assay: HOCI-induced murine fibrosis model: plasma IL-5 (MSD); assay type: in vivo, mice; settings: first experiment, day 42; vs HOCI group; FIG. 9
Experimental: as §7, §8
(§12) In the first experiment, a mixed effect model with repeated measurements was performed on Control group, HOCI treated group, HOCI-antibody- and HOCI-TD139-treated groups. The impact of HOCI administration on plasma IL-6 and IL-5 levels was evaluated compared to the control group. The impact of antibody and TD139 treatments was compared to the HOCI group (FIG. 9). IL-6 and IL-5 were quantified by using the MSD technology from Mesoscale.

plasma IL-6 = assay: HOCI-induced murine fibrosis model: plasma IL-6 (MSD); assay type: in vivo, mice; settings: first experiment, day 42; vs HOCI group; FIG. 9
Experimental: as §7, §8, §12

[6] = tested on: murine model of bleomycin-induced fibrosis; assay: Bleomycin-induced murine lung fibrosis model: Modified Ashcroft fibrosis score; assay type: in vivo, mice
Experimental: as §6
Mice were submitted for terminal euthanasia on day 21. The lungs were collected for histopathological examination and gravity inflation-fixed with 10% neutral buffered formalin (NBF) before being immersion fixed in NBF.
Sections were taken and then placed on three slides as indicated by the code numbers on FIG. 14.
Three longitudinal sections parallel to and bisecting the main stem bronchus were trimmed from the left lung and right caudal lung lobes and mounted in cassettes 01 and 02, respectively. The right cranial, middle and accessory lung lobes were sectioned longitudinally and mounted in cassette 03. All sections were stained with picrosirius red and scored in a blinded manner by a certified veterinary pathologist using the Modified Ashcroft fibrosis score (0-8), where “0” corresponds to “normality (no fibrosis) and “8” corresponds to the highest possible fibrosis score, as described by Hübner et al. (2008) but based on assessment across the whole section of lung.

rat model of ARDS [7] = assay: Rat ARDS model (LPS challenge): total BALF protein (BCA assay); assay type: in vivo; settings: antibodies 14 mg/kg x3 prior to LPS; dexamethasone 10 mg/kg oral; vs LPS group; FIG. 17
Experimental: as §9, §10, §11
The impact of anti-Gal3 antibody treatment in LPS challenged rats were evaluated by quantification of proteins (by BCA assay) in BALF and compared to the positive control group (LPS challenge with PBS treatment) (FIG. 17). The presence of protein in BALF reflects the damage to the air-blood barrier. […] Total BALF protein numeration levels were decreased after treatment with anti-inflammatory dexamethasone.

Row | Molecule | IgG binding to murine Gal3 (m-Gal3-FL) by ELISA (murine Gal3 (m-Gal3-FL)) | hGal3 EC50 (Hu-Gal3-FL) | IgG binding to human Gal3 (Hu-Gal3-FL, Hu-Gal3-CRD) by ELISA [1] | mGal3 EC50 (m-Gal3-FL) | reduction of median Time to baseline (TTB) ([2]; median TTB 20 days for untreated bleomycin group, FIG. 13) | reduction of median Time to weight growth (TWG) ([2]; median TWG 10 days for untreated bleomycin group, FIG. 13) | mean percent weight increase on day 21 compared to day minus 1 ([2]; untreated bleomycin group +1.9%, control mice 6.4%) | lung collagen levels ([3]; day 42, FIG. 8A) | skin collagen levels ([3]; day 42, vs HOCI group, FIG. 8B) | neutrophils counts in BALF (rat model of ARDS [4]) | TNF alpha plasma levels (plasma TNF alpha) | plasma Gal3 levels (plasma Gal3) | HOCI-induced increase in skin thickness ([5]; 42 days, antibody 20 mg/kg s.c., TD139 0.5 mg/kg intratracheal, vs HOCI group, FIG. 7A) | day from which reduction of skin thickness was significant ([5]; sustained effect until day 42) | plasma IL-5 levels (plasma IL-5) | plasma IL-6 levels (plasma IL-6) | frequency of animals with fibrosis score of 2 ([6]; day 21, 7.4% in untreated bleomycin group) | frequency of animals with fibrosis score of 3 ([6]; day 21, 43.2% for bleo group) | frequency of animals with fibrosis score of 4 ([6]; day 21, 44.4% in bleo group) | total BALF protein (rat model of ARDS [7])
1 | B1 | Lower binding signals | too high to be determined | Lower binding signals | too high to be determined |  |  |  |  |  |  |  |  |  |  |  |  |  |  |  | 
2 | B2 |  |  |  |  | 2.7 days | 1.3 days | 4.4% | restored lung collagen levels to those of control mice | significantly reduced | also decreased | also decreased, displaying an intermediary profile | restored the plasma Gal3 levels to values similar to those of the control group | significantly reduced | 21 days | decreased significantly | significantly decreased the plasma IL-6 levels to values similar to those of control mice | 17.8% | 61.1% | 20% | also decreased
3 | B3 | much lower on the m-Gal3 than on the Hu-Gal3-FL and Hu-Gal3-CRD | too high to be determined |  | too high to be determined |  |  |  |  |  |  |  |  |  |  |  |  |  |  |  | 
